B1: Hypochlorite-treated glycosylated PAI-2 (PAI-2^G pre-treated with NaOCl) (natural protein, human, UniProt P05120 1-415, looked up)
chain: MEDLCVANTLFALNLFKHLAKASPTQNLFLSPWSISSTMAMVYMGSRGSTEDQMAKVLQFNEVGANAVTPMTPENFTSCGFMQQIQKGSYPDAILQAQAADKIHSSFRSLSSAINASTGNYLLESVNKLFGEKSASFREEYIRLCQKYYSSEPQAVDFLECAEEARKKINSWVKTQTKGKIPNLLPEGSVDGDTRMVLVNAVYFKGKWKTPFEKKLNGLYPFRVNSAQRTPVQMMYLREKLNIGYIEDLKAQILELPYAGDVSMFLLLPDEIADVSTGLELLESEITYDKLNKWTSKDKMAEDEVEVYIPQFKLEEHYELRSILRSMGMEDAFNKGRANFSGMSERNDLFLSEVFHQAMVDVNEEGTEAAAGTGGVMTGRTGHGGPQFVADHPFLFLIMHKITNCILFFGRFSSP
modifications: glycosylated; hypochlorite-modified: dityrosine cross-linkages, reactive thiols (cysteines) reduced by 62 ± 27% at 200 µM NaOCl; positions not given
notes: m1 after treatment with NaOCl; the dose differs between experiments (0-200 µM); also called hypochlorite-treated PAI-2^G; PAI-2^G OX200; source: bought: Biotech Australia (produced in CHO cells); incubated 2 h at 24 °C with up to 200 µM NaOCl, dialysed
B2: Hypochlorite-treated non-glycosylated PAI-2 (PAI-2^NG pre-treated with NaOCl) (natural protein, human, UniProt P05120 1-415, looked up)
chain: B1 chain
modifications: hypochlorite-modified: dityrosine cross-linkages, reactive thiols (cysteines) reduced by 75 ± 18% at 200 µM NaOCl; positions not given
notes: m2 after treatment with NaOCl; the dose differs between experiments (0-200 µM); also called hypochlorite-treated PAI-2^NG; PAI-2^NG OX200; source: bought: Biotech Australia (produced in E. coli); incubated 2 h at 24 °C with up to 200 µM NaOCl, dialysed

Target: the molecule itself
Test: native gel or EMSA; samples at the end of ThT assays (Aβ1-42 3 µM with PAI-2 pre-treated with 0-200 µM NaOCl, PBS, 28 °C) centrifuged at 24,000 x g, supernatant on 8% native PAGE, Western blot with anti-Aβ (W0-2) or anti-PAI-2

Protein	binding result
B1	binds
B2	binds

Reference: publication PMC8997907, “A Novel Role for Plasminogen Activator Inhibitor Type-2 as a Hypochlorite-Resistant Serine Protease Inhibitor and Holdase Chaperone” (Cells, 2022)
